Experimental data reported in publication doi:10.1101/676627 (bioRxiv, 2019).

Legend:
crystal structure = molecular target: the molecule itself; test: crystal structure
SEC-MALS = molecular target: the molecule itself; test: SEC-MALS

Protein | stoichiometry N (crystal structure) | stoichiometry N (SEC-MALS)
ROCext surface engineered mutant (KA), K1460A and K1463A (domain or fragment, human, UniProt Q5S007 1329-1520, looked up) AVPYNRMKLMIVGNTGSGKTTLLQQLMKTKKSDLGMQSATVGIDVKDWPIQIRDKRKRDLVLNVWDFAGREEFYSTHPHFMTQRALYLAVYDLSKGQAEVDAMKPWLFNIKARASSSPVILVGTHLDVSDEAQRAACMSKITKELLNKRGFPAIRDYHFVNATEESDALAKLRKTIINESLNFKIRDQLVVG | 2 | 
ROCext, wild-type GTPase (ROC) domain of human LRRK2, residues 1329-1520 (domain or fragment, UniProt Q5S007 1329-1520, looked up) AVPYNRMKLMIVGNTGSGKTTLLQQLMKTKKSDLGMQSATVGIDVKDWPIQIRDKRKRDLVLNVWDFAGREEFYSTHPHFMTQRALYLAVYDLSKGQAEVDAMKPWLFNIKARASSSPVILVGTHLDVSDEKQRKACMSKITKELLNKRGFPAIRDYHFVNATEESDALAKLRKTIINESLNFKIRDQLVVG |  | 2
